{"source": "paper PMC10946715", "target": "Cyc15 (Streptomyces sp. NL15-2 K)", "experiment": "crystal structure; X-ray crystal structure of Cyc15 at 1.7 Å, molecular replacement with an AlphaFold 2.0 search model; asymmetric unit with two molecules (Chain A and Chain B)", "data": [{"substance": "Cyc15 (enzyme)", "values": [{"measurement": "stoichiometry N", "result": 2}]}]}
